The record followed here is PMC7504102, “The Penta-EF-Hand ALG-2 Protein Interacts with the Cytosolic Domain of the SOCE Regulator SARAF and Interferes with Ubiquitination” (International Journal of Molecular Sciences, 2020).

The target in assay [1] is T1, StrepHA-SARAF_CytD-SGFP2 F228S (human, UniProt Q96BY9 195-339, F228S).
T1 construct: SARAF CytD, human, 195-339 a.a., F228S; also called F228S mutant; source: HEK293 or HEK293 ALG-2KO, transfected, in lysate; not shown: Twin-Strep, N-terminal, kept; 3xHA, N-terminal, kept; SGFP2, C-terminal, kept
T1 sequence (looked up): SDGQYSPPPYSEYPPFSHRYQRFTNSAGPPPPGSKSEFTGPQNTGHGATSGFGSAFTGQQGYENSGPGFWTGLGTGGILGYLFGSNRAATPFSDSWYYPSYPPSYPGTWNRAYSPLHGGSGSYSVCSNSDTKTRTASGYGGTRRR
Briefly: co-IP; co-IP/HiBiT assay: SGFP2-fused proteins immunoprecipitated with anti-GFP pAb from HEK293 or HEK293 ALG-2KO lysates (with or without co-expressed FLAG-ALG-2); HKM, 1% Nonidet P-40, 10 mM NEM, 10 μM CaCl2; co-precipitated HiBiTHA-SARAF read by lytic HiBiT assay with LgBiT, normalised by StrepTactin-AP. The note with it: partners not purified.

For assay [2], the target named is T2, StrepHA-SARAF_CytD-SGFP2 (WT) (human, UniProt Q96BY9 195-339).
T2 construct: SARAF cytosolic domain (CytD), human, 195-339 a.a; source: HEK293 or HEK293 ALG-2KO, transfected, in lysate; not shown: Twin-Strep, N-terminal, kept; 3xHA, N-terminal, kept; SGFP2, C-terminal, kept
T2 sequence (looked up): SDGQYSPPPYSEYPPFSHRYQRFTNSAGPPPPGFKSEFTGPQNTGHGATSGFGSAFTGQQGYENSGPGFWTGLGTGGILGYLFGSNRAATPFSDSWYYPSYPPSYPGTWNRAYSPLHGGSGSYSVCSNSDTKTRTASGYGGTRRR
The description is as above. The note with it: partners not purified.

Assay [3] has as its target T3, SGFP2-fused SARAF partial fragment (SARAF-p) (human, UniProt Q96BY9 195-339).
T3 construct: source: HEK293 ALG-2KD, transfected, immunoprecipitated with anti-GFP pAb from cleared lysate
T3 sequence (looked up): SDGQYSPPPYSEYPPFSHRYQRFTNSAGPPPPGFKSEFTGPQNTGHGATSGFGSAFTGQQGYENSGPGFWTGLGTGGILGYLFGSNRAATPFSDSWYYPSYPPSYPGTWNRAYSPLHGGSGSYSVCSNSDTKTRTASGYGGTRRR
Briefly: pull-down; SGFP2-fused proteins held on protein G magnetic beads via anti-GFP pAb; incubated with Nluc-ALG-2 (300 ng/mL) in buffer HKM, 0.2% Nonidet P-40, 0.1% gelatin, 100 μM CaCl2, 2 h, 4 °C; bound luciferase activity relative to Sec31A-p (100%). To be noted: one partner purified.

B1: full-length HiBiTHA-SARAF F228S (natural protein, human, UniProt Q96BY9 31-339, looked up)
chain: WNDPDRMLLRDVKALTLHYDRYTTSRRLDPIPQLKCVGGTAGCDSYTPKVIQCQNKGWDGYDVQWECKTDLDIAYKFGKTVVSCEGYESSEDQYVLRGSCGLEYNLDYTELGLQKLKESGKQHGFASFSDYYYKWSSADSCNMSGLITIVVLLGIAFVVYKLFLSDGQYSPPPYSEYPPFSHRYQRFTNSAGPPPPGSKSEFTGPQNTGHGATSGFGSAFTGQQGYENSGPGFWTGLGTGGILGYLFGSNRAATPFSDSWYYPSYPPSYPGTWNRAYSPLHGGSGSYSVCSNSDTKTRTASGYGGTRRR
notes: signal peptide in the construct; SARAF, human, full length, HiBiTHA inserted after the signal peptide; F228S; source: HEK293, transfected, in lysate; not shown: HiBiT, internal (after residue 30), kept
For B1, in assay [1], the “relative interaction activity (WT expressed as 100%)” value was ~15 % of WT.

B2: full-length HiBiTHA-SARAF (WT) (natural protein, human, UniProt Q96BY9 31-339, looked up)
chain: WNDPDRMLLRDVKALTLHYDRYTTSRRLDPIPQLKCVGGTAGCDSYTPKVIQCQNKGWDGYDVQWECKTDLDIAYKFGKTVVSCEGYESSEDQYVLRGSCGLEYNLDYTELGLQKLKESGKQHGFASFSDYYYKWSSADSCNMSGLITIVVLLGIAFVVYKLFLSDGQYSPPPYSEYPPFSHRYQRFTNSAGPPPPGFKSEFTGPQNTGHGATSGFGSAFTGQQGYENSGPGFWTGLGTGGILGYLFGSNRAATPFSDSWYYPSYPPSYPGTWNRAYSPLHGGSGSYSVCSNSDTKTRTASGYGGTRRR
notes: signal peptide in the construct; SARAF, human, full length; HiBiT and 3xHA (HiBiTHA) inserted between the signal peptide and the N-terminus of mature SARAF (31-339 a.a.); construction is in the Supplementary Information; source: HEK293 or HEK293 ALG-2KO, transfected, in lysate; not shown: HiBiT, internal (after residue 30), kept
For the molecule B2, in assay [2], the “fold enhancement, Ca2+ over 5 mM EGTA, HEK293 ALG-2KO cells” value was 1.3 fold and the “fold enhancement, Ca2+ over 5 mM EGTA, parental HEK293 cells” value was 3.7 fold.

B3: nanoluciferase (NanoLuc, Nluc)-fused ALG-2 (natural protein, UniProt O75340 1-191, looked up)
chain: MAAYSYRPGPGAGPGPAAGAALPDQSFLWNVFQRVDKDRSGVISDTELQQALSNGTWTPFNPVTVRSIISMFDRENKAGVNFSEFTGVWKYITDWQNVFRTYDRDNSGMIDKNELKQALSGFGYRLSDQFHDILIRKFDRQGRGQIAFDDFIQGCIVLQRLTDIFRRYDTDQDGWIQVSYEQYLSMVFSIV
notes: synthetic gene for bacterial expression in pET24d; The whole Nluc-ALG-2 fusion is deposited as LC381846; also called Nluc-ALG-2; NlucALG-2
Turning to B3, the “binding activity relative to Sec31A-p (100%)” value in assay [3] was 71.5%.
